Assays:
[1] = molecular target: Recombinant human Toll-like receptor 2 (rTLR2) (UniProt O60603); experiment: ELISA; competition: synthesized peptides (1 μM, and dose-dependent for IC50) against the binding of rLipL32WT to rTLR2
[2] = molecular target: Recombinant human Toll-like receptor 2 (rTLR2) (UniProt O60603); experiment: AFM force spectroscopy; rTLR2 covalently fixed on mica, LipL32 or variant coupled to the AFM tip (glutaraldehyde); force-distance curves, maximum distribution force and binding frequency; anti-TLR2 antibody as neutralising control
[3] = molecular target: Recombinant human Toll-like receptor 2 (rTLR2) (UniProt O60603); experiment: ELISA; dose-dependent; rTLR2 coated, LipL32 variants 0 to 2 μM in PBS, 90 min at 37 °C, anti-His6 detection; in the presence of 1 µM Ca2+; Kd from a one-site fit
[4] = molecular target: Recombinant human Toll-like receptor 2 (rTLR2) (UniProt O60603); experiment: ELISA; dose-dependent; rTLR2 coated, LipL32 variants 0 to 2 μM in PBS, 90 min at 37 °C, anti-His6 detection; in the presence of 1 µM EGTA; Kd from a one-site fit
[5] = molecular target: Recombinant human Toll-like receptor 2 (rTLR2) (UniProt O60603); experiment: ELISA; details: parent: est. 0.37; read off a plot

Sequence of Recombinant human Toll-like receptor 2 (rTLR2) (O60603 21-784): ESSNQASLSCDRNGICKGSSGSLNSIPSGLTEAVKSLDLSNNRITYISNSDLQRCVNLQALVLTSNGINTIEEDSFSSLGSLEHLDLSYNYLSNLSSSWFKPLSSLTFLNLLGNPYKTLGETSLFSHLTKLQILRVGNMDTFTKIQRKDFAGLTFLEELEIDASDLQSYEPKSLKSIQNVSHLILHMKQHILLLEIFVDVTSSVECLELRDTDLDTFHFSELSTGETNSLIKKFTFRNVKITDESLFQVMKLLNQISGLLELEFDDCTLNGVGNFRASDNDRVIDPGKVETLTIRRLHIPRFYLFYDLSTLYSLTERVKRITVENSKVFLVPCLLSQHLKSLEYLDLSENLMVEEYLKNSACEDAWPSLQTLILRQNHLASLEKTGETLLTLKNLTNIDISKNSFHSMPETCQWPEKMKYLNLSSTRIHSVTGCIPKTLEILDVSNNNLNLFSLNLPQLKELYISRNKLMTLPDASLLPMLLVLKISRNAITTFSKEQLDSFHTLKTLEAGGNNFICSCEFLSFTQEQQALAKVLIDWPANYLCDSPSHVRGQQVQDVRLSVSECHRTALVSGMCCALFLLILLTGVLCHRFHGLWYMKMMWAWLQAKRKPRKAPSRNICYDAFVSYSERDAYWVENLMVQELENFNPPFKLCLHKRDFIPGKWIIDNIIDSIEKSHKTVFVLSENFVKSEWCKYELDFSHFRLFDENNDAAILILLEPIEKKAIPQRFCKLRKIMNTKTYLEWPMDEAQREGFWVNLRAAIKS

Substance	IC50 [1]	Kd [3]	Kd [4]	other results
C25 peptide (248–272 residues of LipL32)	140 nM			
N20 peptide (1–20 residues of LipL32)	90 nM			
N50 peptide (1–50 residues of LipL32)	70 nM			
Recombinant LipL32 wild type, mature form (rLipL32; 21-272) (natural protein)		130 nM	450 nM	maximum distribution force (AFM) [2]: 55.3 pN
Recombinant LipL32 wild type, mature form (rLipL32; 21-272) L263S				response [5]: 0.29 OD450nm
rLipL32 D195A variant (natural protein)		100 nM	120 nM	
rLipL32 D196A variant (natural protein)		160 nM	160 nM	

Reference: PMC5566480
